# Reference: patent US20190224101A1
# B1: mono-scFv-phage No. 10 (scFv, V domains shown)
# VH: QVQLVESGGGLIQPGGSLRLSCVASGFTVSSSFMSWVRLAPGKGLEWVALAYSGGNTYYADSVKGRFTVSRDDSSNTLYLQMNSLRAEDTAVYYCSCEGKAVSGSRDLHFEFWSPGTLVTVSS
# VL: SYELTQAPSLSVSPGQTANIICSGDNLRTKYVSWYQQKPGQAPVLVIYNDNDRPSGIPERFSGTNSGNTAALTISRVEAGDEADYYCQVWDSSSDHLIFGGGTKLTVL
# B2: mono-scFv-phage No. 6 (scFv, V domains shown)
# VH: QVQLVESGGGVVRPGGSLRLSCTASGFTFDDHGMSWVRQAPGKGLEWVSTINLNGGSTAYADSVKGRFTISRDNAKNSLYLQMNSLRAEDTAVYYCSTRHLHHWGQGTLVTVSS
# VL: DIVMTQTPLSSPVTLGQPASISCRSSQSLVHSNGNTYLTWLQQRPGQPPRLLIHKISNRFSGVPDRFSGSGAGTDFTLKISRVEAEDVGVYYCVQAKQFPLTFGQGTRLEIK
# B3: mono-scFv-phage No. 8 (scFv, V domains shown)
# VH: QVQLVQSGGGVVQPGGSLRLSCAASGFSFNDYAMHWVRQVPGKGLEWVSSISWNSRSTVYAASVEGRFSISRDNSKNSLYLQMNSLRAEDAAVYYCTTDLGVVPAAIYAFDIWGQGTMVTVSS
# VL: DIQMTQSPSVMSASVGDRVNITCRASQGITNWLAWYQQKPGKAPKLLISAASSLQSGVPSRFSGSGSGTDFTLTISSLQPDDFATYYCQQTATFQITFGQGTRLDIK
# B4: mono-scFv-phage No. 3 (scFv, V domains shown)
# VH: QMQLVQSGAEVKKPGASVKVSCKASGYTFTDYYIHWVRQAPGQGLEWMGWINPNSGAPEFAQRFQGRVSMTRDASINTTYMELSGLRSEDTAVYYCVKGLEHAAGSAIFDRWGQGTMVTVSS
# VL: QTVVTQEPSFSVSPGGTVTLTCGLTSGSVSTSHFPSWYQQTPGQAPRTLIYFKDTRSSGVPDRFSGSILGNKAALTITGAQADDESDYYCALSMGSGIWVFGGGTKLTVL
# B5: 10F antibody (antibody, V domains shown)
# VH: B1 VH
# VL: B1 VL
# B6: 6F antibody (antibody, V domains shown)
# VH: B2 VH
# VL: B2 VL
# B7: 8F antibody (antibody, V domains shown)
# VH: B3 VH
# VL: B3 VL
# B8: 3F antibody (antibody, V domains shown)
# VH: B4 VH
# VL: B4 VL
# Target: control cells (Staphylococcus epidermidis), whole cells (Staphylococcus epidermidis)
# Assay: mono-scFv-phage ELISA on control cells
row,Binder,O.D. 450 nm [O.D. 450 nm]
1,B1,0.0023
2,B2,0.0041
3,B3,0.0044
4,B4,0.0002

# Target: Propionibacterium acnes (P. acnes) whole cells, surface antigen not identified (Propionibacterium acnes)
# Assay: mono-scFv-phage ELISA on whole P. acnes
Binder,ELISA O.D. value [O.D.],O.D. 450 nm [O.D. 450 nm]
B1,2.07,1.81
B2,2.22,1.95
B3,2.08,1.82
B4,3.62,3.36

# Target: control cells (Staphylococcus epidermidis), whole cells (Staphylococcus epidermidis)
# Assay: IgG ELISA on control cells
row,Binder,O.D. 450 nm [O.D. 450 nm]
1,B5,-0.0248
2,B6,0.0114
3,B7,-0.0268
4,B8,-0.0105

# Target: Propionibacterium acnes (P. acnes) whole cells, surface antigen not identified (Propionibacterium acnes)
# Assay: IgG ELISA on whole P. acnes
row,Binder,O.D. 450 nm [O.D. 450 nm]
1,B5,0.00605
2,B6,2.36
3,B7,2.32
4,B8,0.0149
